Test results as given in the DeepSol protein solubility set.

test: soluble on expression in E. coli; label from the status in PepcDB or PDB records

**Q.** Which “soluble on expression in E. coli” value does the source give for “MSSGVKASPHRFNRFEIKYLITEQDVPALREQLATRMSTDPLSPPGGYRVESLYFDSADLRCYTEKIEGLKFRRKLRIRTYGDGVLTPESTVSVEIKQRVNKVTQKRRLDLPFIYALALGDSTGAAVGEQVDVEKLLEISPENQHALIHEMASFAKNYRLRPIATTKYHREAFVGADAEESSRVTIDHGVSGRDRDFLLGQDLEDRPTVAQGLAVVEIKCDERVPFWLTDMTAQLEMSVIRMSKYCETIEAFHNRPASAFGAVDPIFLEHHHHHH” here?
**A.** The value was “not soluble”.

**Q.** Which “soluble on expression in E. coli” value does the source give for “MSSIRVVALDWRYEEILHALGITPVGIVEIGKSKEPQTLKGELEGVTSVGQAKQPNLEVIQSLEPDLILASPTRQAAIMDQLKEIAPTHAYGDTSYTEVLDAMDDIATKVGAEDKAKEVRTRIESKIAQAKNKVEPGTRTALIGWSKNTLYTWVKDSFAGSLLTAAGYEYGYDGEKSAIESKTDVAELTGDKLPEMKLDVMYLYNDIEGFRSSPYADVVSNIVDVEQDTWSRSRGPLAAEAMLDQIINSLEHHHHHH” here?
**A.** Its value is “soluble”.

**Q.** With “MSSKPRHDWFQSETDVTLTILKRGVPLDDCSVSLSDNNTLTVKQCDEILFYGQLSGQVKKDDLTVKCTAAKVEVRLPKFARNERWASLLKDGQGVAASVQSVSPNPESAPTTTVKKNWDAIEKQAVKEEEDESLEGDAAVNKMFRKMYNDASDDVRRAMMKSYSESNGTVLSTNWSEIGQKKTECQPPACMEYKEYEK” as the sequence, how does the “soluble on expression in E. coli” value read?
**A.** The value was “not soluble”.

**Q.** Which “soluble on expression in E. coli” value does the source give for “MSSLAKLGYFFDEKGVLKTEKDKKPFKFTTQEDYEELGEAVDLEVYELLETRCGLKRKALKLPGKTDEDEDLSFIFVSKNFKKAANLLVLIHGSGVVRAGQWARRLIINDNLECGTQIPYIERAIENGWGVVVMNTNLNESKDQDLKYSRTPVEHAETVWIACIEPSNAKSIYVVAHSRGGYDTASVLKKFGGDDRISKICLTDSPWFEFPKSCAQRARPLFVVNFLAHGALNSPSYKVREYREGNVAELWAGTQIHEWSSHCAIDAVFHILETEMTPSNYAEVMEEAKKLVVKSENSKESDDEAPKSKKICV” here?
**A.** The value was “not soluble”.

**Q.** For “MSSPSKRREMDMMKLMMSDYKVETINDGMQEFYVEFNGPKDSLYQGGVWKIRVELPDAYPYKSPSVGFITKIYHPNVDELSGSVCLDVINQTWSPMFDLVNVFETFLPQLLLYPNPSDPLNGEAAALMMRDRPAYEQRVKEYCEKYAKPGEGSEDKSSDEELSEEEYGSDNEDDDDDDVAIAGKPDP”, which “soluble on expression in E. coli” value is on record?
**A.** Its value is “not soluble”.

**Q.** With “MSSQKSGIVVQSDETHILISSSHDIFVADPDQNTKLGDSVSFTTWDIANNLKRASDIKPRNQIVESVVYEQDQSLRLRLKILGFYDFTKSQQRVFRTDFITQVREGEKFKYLPKNAFFGRQITVKLTHQKNSIVWELDEFEEPKEKTYSLIGQIYYTDFSDAYVYVPGYPEPFVISKETNFSRSEEGTWVKFLACTATASVKKSEGFQFLEKDLLDTNRNREIAIKCSRKDGIIQSHHFEKVIDKDNRLADYGVLSDFENVLIYVKVSMEGVSKKPSLILGQFQTSFNVNPTLTRDQKEALDPPKRILKKQSSLPREGSSRKQVTQIQNLSRKIETGPRINFLPNFNNQDHGSEFFSDNEEMDLVPPLENSHLRVDPVPVPIEPSIQQNRTTTTAPISAPARRISSNESRRENPNSQPAPSKMQNVFREDPEAEYKRPERSNADNDETSSTISACSSKSRIVRENPDANYERPARRLPTPPLEANDNLEHQSHDSSSTDGLRDTSPVGNNTNPRSGSPSCHSDTHSSVSSSLWITTINSSKDLEFVKNEYIKLWIEDQASQKEMKNLKAKRIELKMKQKKLKAELNDEKMKNQKLEEAAFNDRKEKAELKKKVSNLEQSAQNTQRTLQNQTRELNLYSTNRSWLRKEFNSTNLLEHLRRNYHDLSKRLEQFAFN” as the sequence, how does the “soluble on expression in E. coli” value read?
**A.** The value was “not soluble”.

**Q.** For “MSSQRWLWRNQHSVQTNIGSREKDLKITKTKKIKKKHERAYELLAEAAYSDPFAALGPFIDDGEGSLRVWMPGANKVELLVNGEPRVALERDGDSGFILKEQRDLHLTHYRLAVDWNGVEQIIDDPYQYHNIYQEYEHLHTPKDM”, which “soluble on expression in E. coli” value is on record?
**A.** The value was “not soluble”.

**Q.** Which “soluble on expression in E. coli” value does the source give for “MSSRKNFSRLTWFRKQRKAVVSSNDKKMPNGILEEQEQQRVMLLSRSPSGPKKFFPIPVEHLEEEIRVRSADDCKRFREEFNSLPSGHIQGTFELANKEENREKNRYPNILPNDHCRVILSQVDGIPCSDYINASYIDGYKEKNKFIAAQGPKQETVNDFWRMVWEQRSATIVMLTNLKERKEEKCYQYWPDQGCWTYGNIRVCVEDCVVLVDYTIRKFCIHPQLPDSCKAPRLVSQLHFTSWPDFGVPFTPIGMLKFLKKVKTLNPSHAGPIVVHCSAGVGRTGTFIVIDAMMDMIHSEQKVDVFEFVSRIRNQRPQMVQTDVQYTFIYQALLEYYLYGDTELDVSSLERHLQTLHSTATHFDKIGLEEEFRKLTNVRIMKENMRTGNLPANMKKARVIQIIPYDFNRVILSMKRGQEFTDYINASFIDGYRQKDYFMATQGPLAHTGEDFWRMVWEWKSHTIVMLTEVQEREQDKCYQYWPTEGSVTHGDITIEIKSDTLSEAISVRDFLVTFKQPLARQEEQVRMVRQFHFHGWPEVGIPAEGKGIIDLIAAVQKQQQQTGNHPITVHCSAGAGRTGTFIALSNILERVKAEGLLDVFQAVKSLRLQRPHMVQTLEQYEFCYKVVQDFIDIFSDYANFK” here?
**A.** Its value is “soluble”.

**Q.** For “MSSRLDQLVNKYNKSCENVSFAEHMILKDKYESLVIEHESLIKTLELLEKTHGFTVEDLVTKQKEALEKKEVIEKWENKFGEMEKKLKTVERSIEYIMSVDVQTGVDSGSANRPNVKNSYQRGIF”, which “soluble on expression in E. coli” value is on record?
**A.** The value was “not soluble”.

**Q.** Which “soluble on expression in E. coli” value does the source give for “MSSSAPKYTTFQGSQNFRLRIVLATLSGKPIKIEKIRSGDLNPGLKDYEVSFLRLIESVTNGSVIEISYTGTTVIYRPGIIVGGASTHICPSSKPVGYFVEPMLYLAPFSKKKFSILFKGITASHNDAGIEAIKWGLMPVMEKFGVRECALHTLKRGSPPLGGGEVHLVVDSLIAQPITMHEIDRPIISSITGVAYSTRVSPSLVNRMIDGAKKVLKNLQCEVNITADVWRGENSGKSPGWGITLVAQSKQKGWSYFAEDIGDAGSIPEELGEKVACQLLEEISKSAAVGRNQLPLAIVYMVIGKEDIGRLRINKEQIDERFIILLRDIKKIFNTEVFLKPVDEADNEDMIATIKGIGFTNTSKKIA” here?
**A.** Its value is “not soluble”.

**Q.** For “MSSSLQSNRQSLNRKVAVMGYPHVGKSALVLRFTQNIFPERYESTIEDQHSKHIAAFHRDYHLRVTDTAGQQEYTVFPRSCSLDINGFILVYAIDDRKSFEMCSNIYEKIVRTYGDTSIPIVIVGNKTDLSTQRVVRAEEGEELARQWDAKFVEITARESNRVHEVFELLLREIEISRGNLSPTERPNGNSPKRNPFKDDGKPCSIS”, which “soluble on expression in E. coli” value is on record?
**A.** The value was “not soluble”.

**Q.** Which “soluble on expression in E. coli” value does the source give for “MSSSSPNSSRSEAVNGRVVVPTGGSRRENSGPARGPAGFSATVLPCDEATKAAFAKDWKDLEQENLSSADYYFNSYAHFGIHEEMIKDSVRTGCYQRAICQNAHLFANKVVLDVGSGTGILSLFAAKAGAKHVYGIECSEIVNIARKIVKENDMEDKVTFVQGKAEEVSLPVEKVDIIISEWMGYFLLYESMLDTVLFCRDKWLKPGGMIFPDKAALYVAAIEDADYKEEKIGYWGNVYGFNFSCVRRCVMEEPIVDTVDENAVSTTSCCVLKLDLLTCTKEDLDFCAPYEITLRRKDFLHAFIAWFDVWFSHCHKPVVLSTGPHCRYTHWKQTVFYMEDVLVADVGDKVEGMIAVKKSQKNPRDLDIKISYTFNPPHAPAAIENTQFYRLR” here?
**A.** Its value is “soluble”.

**Q.** With “MSTAETAVAPVDYRTDPSQYKHWKLSFNGPVATLGIDIAEDGGIRDGYKLKLNSYDLGVDIELHDAIQRIRFEHPEVRTVVLTSLKDRVFCSGANIFMLGLSTHAWKVNFCKFTNETRNGLEDSSRHSGLKFLAAVNGACAGGGYELALACDEIYLVDDRSSSVSLPEVPLLGVLPGTGGLTRVTDKRKVRHDRADIFCTVVEGVRGERAKAWRLVDEVVKPNQFDQAIQARALELAAQSDRPAHAQGVPLTRIERTDREDGLTYKTLDVTIDRAKRIATFTAKAPQTEPPASIDAIVAAGANWWPLKFAREFDDAILSMRTNELAVGTWVFRTEGDARHLLAADASLMQHKDHWFVRETIGLLRRTLARIDVSSRSLFALIEPGSCFAGTFAELAFAADRTYMAALPANEDEEPAITLSEVNFGLYPMVTHQSRLARRFYEETEPLDAVRSRIGQAIKPVEAERLGLVTASPDDIDWADEIRIALEERAAMSPDALTGLEANLRFNGPETMETRIFGRLTAWQNWIFNRPNAVGEKGALKVYGKGSKAQFDVSRV” as the sequence, how does the “soluble on expression in E. coli” value read?
**A.** The value was “soluble”.
